From patent US12116424 come the findings set out here.

Read-outs that look alike come from different tables or passages of the source.

The target in assay [1] is L. monocytogenes AgrC (Listeria monocytogenes (EGD-e)). Kind of assay: cell-based or functional assay.
The target is the same in assay [2]. Description: cell-based or functional assay. This is another data set of the same source.

In assay [1], AIP A1K/C2dC/M4dM (peptide) registered an IC50 (agr-GFP reporter, wild-type strain) of 1770 nM; a Max Activation Observed (agr-GFP reporter, ΔagrD strain) of 8.1%; a Max Inhibition Observed (agr-GFP reporter, wild-type strain) of 88.6%.
In assay [1], AIP A1K/M4dM (peptide) registered an EC50 (agr-GFP reporter, ΔagrD strain) of 4.18 nM; a Max Activation Observed (agr-GFP reporter, ΔagrD strain) of 74.1%; a Max Inhibition Observed (agr-GFP reporter, wild-type strain) of 20.2%.
Regarding AIP A1P (peptide), in assay [1], the EC50 (agr-GFP reporter, ΔagrD strain) was 29 nM; the IC50 (agr-GFP reporter, wild-type strain) turned out to be 611 nM; the Max Activation Observed (agr-GFP reporter, ΔagrD strain) came out at 76.8%; the Max Inhibition Observed (agr-GFP reporter, wild-type strain) was determined as 23.7%.
Take AIP A1T (peptide): in assay [1], the EC50 (agr-GFP reporter, ΔagrD strain) came out at 35.2 nM; the IC50 (agr-GFP reporter, wild-type strain) was 420 nM; the Max Activation Observed (agr-GFP reporter, ΔagrD strain) amounted to 88.1%; the Max Inhibition Observed (agr-GFP reporter, wild-type strain) came to 11.7%.
With AIP A1V (peptide), in assay [1], the EC50 (agr-GFP reporter, ΔagrD strain) came to 7.67 nM; the Max Activation Observed (agr-GFP reporter, ΔagrD strain) was determined as 109%; the Max Inhibition Observed (agr-GFP reporter, wild-type strain) is 1.63%.
For the substance AIP A1dA (peptide), in assay [2], the EC50 (agr-GFP reporter, ΔagrD strain) was 96.9 nM; the Max Activation Observed (agr-GFP reporter, ΔagrD strain) is 58.8%; the Max Inhibition Observed (agr-GFP reporter, wild-type strain) is 15.2%.
In assay [1], AIP C2Dap (peptide) yielded an EC50 (agr-GFP reporter, ΔagrD strain) of 342 nM; a Max Activation Observed (agr-GFP reporter, ΔagrD strain) of 92.9%; a Max Inhibition Observed (agr-GFP reporter, wild-type strain) of 5.32%.
In assay [2], AIP C2dC (peptide) showed an EC50 (agr-GFP reporter, ΔagrD strain) of 106 nM; an IC50 (agr-GFP reporter, wild-type strain) of 3970 nM; a Max Activation Observed (agr-GFP reporter, ΔagrD strain) of 41%; a Max Inhibition Observed (agr-GFP reporter, wild-type strain) of 48.4%.
Turning to AIP C2dC/M4dM (peptide), in assay [1], the EC50 (agr-GFP reporter, ΔagrD strain) stood at 24.1 nM; the IC50 (agr-GFP reporter, wild-type strain) is 242 nM; the Max Activation Observed (agr-GFP reporter, ΔagrD strain) is 35.7%; the Max Inhibition Observed (agr-GFP reporter, wild-type strain) came to 64.8%.
In assay [1], AIP C2dDap (peptide) showed a Max Activation Observed (agr-GFP reporter, ΔagrD strain) of 14.3% and a Max Inhibition Observed (agr-GFP reporter, wild-type strain) of 19.3%.
Take AIP F3A (peptide): in assay [2], the Max Activation Observed (agr-GFP reporter, ΔagrD strain) is 9.72% and the Max Inhibition Observed (agr-GFP reporter, wild-type strain) amounted to 3.65%.
Turning to AIP F3H (peptide), in assay [1], the Max Activation Observed (agr-GFP reporter, ΔagrD strain) was found to be 12.4% and the Max Inhibition Observed (agr-GFP reporter, wild-type strain) came to 24.9%.
In assay [1], AIP F3L (peptide) displayed an EC50 (agr-GFP reporter, ΔagrD strain) of 693 nM; an IC50 (agr-GFP reporter, wild-type strain) of 3600 nM; a Max Activation Observed (agr-GFP reporter, ΔagrD strain) of 37.6%; a Max Inhibition Observed (agr-GFP reporter, wild-type strain) of 33.4%.
For AIP F3W (peptide) the same measures were 414 nM, 2180 nM, 60.6% and 27.1%.
For AIP F3Y (peptide) the same measures were 518 nM, 3460 nM, 47.4% and 33.4%.
In assay [2], AIP F3dF (peptide) yielded a Max Activation Observed (agr-GFP reporter, ΔagrD strain) of 6.63% and a Max Inhibition Observed (agr-GFP reporter, wild-type strain) of 14.7%.
In the case of AIP F5A (peptide), the Max Activation Observed (agr-GFP reporter, ΔagrD strain) in assay [2] worked out at 6.37%.
Regarding AIP F5H (peptide), in assay [1], the Max Activation Observed (agr-GFP reporter, ΔagrD strain) came to 7.13% and the Max Inhibition Observed (agr-GFP reporter, wild-type strain) was 2.19%.
In assay [1], AIP F5L (peptide) yielded an EC50 (agr-GFP reporter, ΔagrD strain) of 2060 nM; a Max Activation Observed (agr-GFP reporter, ΔagrD strain) of 64.8%; a Max Inhibition Observed (agr-GFP reporter, wild-type strain) of 8.97%.
For AIP F5W (peptide) the same measures were 1130 nM, 85.8% and 8.43%.
Taken in the same sequence, the figures for AIP F5Y (peptide) were 5620 nM, 44.4% and 6.61%.
Consider AIP F5dF (peptide), for which, in assay [2], the EC50 (agr-GFP reporter, ΔagrD strain) was determined as 2180 nM; the Max Activation Observed (agr-GFP reporter, ΔagrD strain) was 72.3%; the Max Inhibition Observed (agr-GFP reporter, wild-type strain) is 2.71%.
For AIP M4A (peptide) the same measures were 1980 nM, 53.5% and 7.85%.
In assay [1], AIP M4dA (peptide) showed an EC50 (agr-GFP reporter, ΔagrD strain) of 455 nM; a Max Activation Observed (agr-GFP reporter, ΔagrD strain) of 82%; a Max Inhibition Observed (agr-GFP reporter, wild-type strain) of 9.54%.
For AIP M4dM (peptide), in assay [2], the EC50 (agr-GFP reporter, ΔagrD strain) was 10.2 nM; the Max Activation Observed (agr-GFP reporter, ΔagrD strain) amounted to 111%; the Max Inhibition Observed (agr-GFP reporter, wild-type strain) is 3.99%.
As to AIP V6A (peptide), in assay [2], the EC50 (agr-GFP reporter, ΔagrD strain) came to 241 nM; the Max Activation (agr-GFP reporter, ΔagrD strain) was determined as 69%; the Max Activation Observed (agr-GFP reporter, ΔagrD strain) came out at 69%; the Max Inhibition (agr-GFP reporter, wild-type strain) stood at 15%. In assay [2], the Max Inhibition Observed (agr-GFP reporter, wild-type strain) turned out to be 15%.
In assay [2], AIP V6dV (peptide) displayed an EC50 (agr-GFP reporter, ΔagrD strain) of 883 nM and a Max Activation Observed (agr-GFP reporter, ΔagrD strain) of 72.9%.
With L. grandensis tr AIP (peptide), in assay [2], the Max Activation (agr-GFP reporter, ΔagrD strain) turned out to be 10.1% and the Max Inhibition (agr-GFP reporter, wild-type strain) amounted to 0%.
Taken in the same sequence, the figures for L. grayi AIP (peptide) were 10.7% and 0.42%.
In the case of L. kieliensis AIP (peptide), in assay [2], the Max Activation (agr-GFP reporter, ΔagrD strain) was determined as 10.4% and the Max Inhibition (agr-GFP reporter, wild-type strain) is 0%.
In assay [1], “L. monocytogenes AIP, A-(C-F-M-F-V) (peptide)” showed an EC50 (agr-GFP reporter, ΔagrD strain) of 29.7 nM and a Max Activation Observed (agr-GFP reporter, ΔagrD strain) of 114%. In assay [2], this substance came in with an EC50 (agr-GFP reporter, ΔagrD strain) of 29.6 nM; a Max Activation (agr-GFP reporter, ΔagrD strain) of 114%; a Max Inhibition (agr-GFP reporter, wild-type strain) of 2.66%.
On to L. newyorkensis AIP (peptide), for which, in assay [2], the Max Activation (agr-GFP reporter, ΔagrD strain) was 23.6% and the Max Inhibition (agr-GFP reporter, wild-type strain) amounted to 0.96%.
In assay [2], L. weihenstephanensis AIP (peptide) showed a Max Activation (agr-GFP reporter, ΔagrD strain) of 11.2% and a Max Inhibition (agr-GFP reporter, wild-type strain) of 0%.
For Lm AIP F3S (peptide), in assay [2], the Max Activation (agr-GFP reporter, ΔagrD strain) worked out at 16.1% and the Max Inhibition (agr-GFP reporter, wild-type strain) is 16.3%.
